Measured values as given in PMC10508222, “Elucidation of the stereocontrol mechanisms of the chemical and biosynthetic intramolecular Diels–Alder cycloaddition for the formation of bioactive decalins” (RSC Advances, 2023).

B1: Phm7 (Pyrenochaetopsis sp.) (protein)
chain: MSEPTSSSSLDITSNCIIETPLQPSDFLPKSANLFPKFPERISVDSWELWEFDTFDTNGSVAFGCSLYRDARGVEQGGFHAEVNALWPDGTHWGETLYFAVSEVVENSDGTTGGKWLSKDGGSITFHIASDYTAAALDFNVPGKVSGTMELRNHANVSPTSNLPASDAEAQLCPGVYYTFPMGPVATSVTATFSSVGANGESRELFISSGYGGMVRGWSARPWPTFMNDAYYVVAQVGPYMLQILRTLGSVFVQHKPFAVARLYLDGSLVSAANTVVGDELTAHADDVKGDAVRLTKVQPDEKSQGLSGKFRDGNVGYVLEFAKKDSEHGWTFQISHKRAVWSEPTSAPGPDGTGKSGWIEAISGGAKGENYEGHGFGGQLQIPVP

How the values were obtained:
Assay in all cases: purified protein, by the assay type
Settings in all cases: pH 7.5; 25.0 °C
[1] = tested on: C/C=C/C=C/C=C/C[C@@H](C)CC/C=C(\C)C(O)=C1C(=O)C(CO)N(C)C1=O
[2] = tested on: C/C=C/C=C/C=C/C[C@H](C)CC/C=C(\C)C(O)=C1C(=O)C(CO)N(C)C1=O
[3] = substrate: C/C=C/C=C/C=C/C[C@@H](C)CC/C=C(\C)C(O)=C1C(=O)C(CO)N(C)C1=O; remark: listed apart in the source

Row | Molecule | Km [1] [µM] | kcat [1] [s⁻¹] | kcat/Km [1] [M⁻¹ s⁻¹] | Km [2] [µM] | kcat [2] [s⁻¹] | kcat/Km [2] [M⁻¹ s⁻¹] | Km [3] [µM] | kcat [3] [s⁻¹] | kcat/Km [3] [M⁻¹ s⁻¹]
1 | Fsa2 (Fusarium sp. FN080326) | 25.07 ± 2.98 | 1.01 ± 0.048 | 40200 | 18.07 ± 4.21 | 84.2 ± 6.58 | 4.67e+06 |  |  | 
2 | B1 |  |  |  |  |  |  | 38.21 ± 8.23 | 1.98 | 51800
